This is an account of results in patent US20110280809.

The series deals with Bovine pancreatic trypsin inhibitor, reduced form, P00974.

B1: GST-Pdia4 (protein)
chain: VAGAEGPDEDSSNRENAIEDEEEEEEEDDDEEEDDLEVKEENGVLVLNDANFDNFVADKDTVLLEFYAPWCGHCKQFAPEYEKIANILKDKDPPIPVAKIDATSASVLASRFDVSGYPTIKILKKGQAVDYEGSRTQEEIVAKVREVSQPDWTPPPEVTLVLTKENFDEVVNDADIILVEFYAPWCGHCKKLAPEYEKAAKELSKRSPPIPLAKVDATAETDLAKRFDVSGYPTLKIFRKGRPYDYNGPREKYGIVDYMIEQSGPPSKEILTLKQVQEFLKDGDDVIIIGVFKGESDPAYQQYQDAANNLREDYKFHHTFSTEIAKFLKVSQGQLVVMQPEKFQSKYEPRSHMMDVQGSTQDSAIKDFVLKYALPLVGHRKVSNDAKRYTRRPLVVVYYSVDFSFDYRAATQFWRSKVLEVAKDFPEYTFAIADEEDYAGEVKDLGLSESGEDVNAAILDESGKKFAMEPEEFDSDTLREFVTAFKKGKLKPVIKSQPVPKNNKGPVKVVVGKTFDSIVMDPKKDVLIEFYAPWCGHCKQLEPVYNSLAKKYKGQKGLVIAKMDATANDVPSDRYKVEGFPTIYFAPSGDKKNPVKFEGGDRDLEHLSKFIEEHATKLSRTKEEL
On to B1, for which the “disulfide isomerase activity, fraction remaining (%) of the reduced BPTI” value is listed as “GST-Pdia4 showed disulfide isomerase activity as compared to GST protein in redox buffer as evidenced by a decrease in disulfide formation of bovine pancreatic trypsin inhibitor”.
